In test [1] the target is T1, Msn5 (S. cerevisiae exportin), wild type (S. cerevisiae, UniProt P52918 1-1224).
T1 sequence: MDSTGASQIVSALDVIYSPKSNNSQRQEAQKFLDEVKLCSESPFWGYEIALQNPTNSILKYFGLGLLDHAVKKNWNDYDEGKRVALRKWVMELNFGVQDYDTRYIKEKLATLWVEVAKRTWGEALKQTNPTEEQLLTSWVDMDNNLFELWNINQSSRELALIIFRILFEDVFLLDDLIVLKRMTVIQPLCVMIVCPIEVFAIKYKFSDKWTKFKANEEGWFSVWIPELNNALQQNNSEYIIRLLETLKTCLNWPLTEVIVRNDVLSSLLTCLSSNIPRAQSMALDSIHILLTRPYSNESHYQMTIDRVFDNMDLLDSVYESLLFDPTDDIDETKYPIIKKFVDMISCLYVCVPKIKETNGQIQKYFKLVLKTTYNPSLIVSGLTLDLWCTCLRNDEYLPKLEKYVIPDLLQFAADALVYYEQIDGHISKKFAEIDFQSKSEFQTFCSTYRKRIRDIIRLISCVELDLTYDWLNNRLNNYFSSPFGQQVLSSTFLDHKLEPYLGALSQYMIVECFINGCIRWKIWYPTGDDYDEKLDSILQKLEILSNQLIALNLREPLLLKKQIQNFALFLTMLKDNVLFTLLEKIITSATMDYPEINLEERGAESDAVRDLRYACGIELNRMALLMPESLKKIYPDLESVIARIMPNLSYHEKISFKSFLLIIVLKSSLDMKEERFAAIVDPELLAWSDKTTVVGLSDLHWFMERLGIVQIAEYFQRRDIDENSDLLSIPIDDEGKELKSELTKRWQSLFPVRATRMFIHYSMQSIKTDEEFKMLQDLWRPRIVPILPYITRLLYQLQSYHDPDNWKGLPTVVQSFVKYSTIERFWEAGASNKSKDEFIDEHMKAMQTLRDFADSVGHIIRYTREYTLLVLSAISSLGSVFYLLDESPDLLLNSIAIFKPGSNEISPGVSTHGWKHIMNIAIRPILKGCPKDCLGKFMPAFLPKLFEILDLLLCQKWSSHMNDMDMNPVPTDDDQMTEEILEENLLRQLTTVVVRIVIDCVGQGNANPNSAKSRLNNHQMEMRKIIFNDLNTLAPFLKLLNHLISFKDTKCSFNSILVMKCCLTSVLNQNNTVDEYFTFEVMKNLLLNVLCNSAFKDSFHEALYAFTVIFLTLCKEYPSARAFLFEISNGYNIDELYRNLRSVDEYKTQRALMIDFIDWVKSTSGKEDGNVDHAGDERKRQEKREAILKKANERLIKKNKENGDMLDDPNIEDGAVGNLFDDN
Put plainly: fluorescence polarisation. In general terms: Fluorescence polarisation rises when a labelled molecule tumbles more slowly, as on binding a larger partner.

The target in another test is T2, Msn5 RRAA (R393A, R458A) (S. cerevisiae, UniProt P52918 1-1224, RRAA (R393) | RRAA (R458)).
T2 sequence: T1 sequence with R393A, R458A
Put plainly: fluorescence polarisation.

For test [2], the target named is T1, Msn5 (S. cerevisiae exportin), wild type. Description: cryo-EM structure.

Residue numbers refer to the chain shown, from its start. Where “and” joins values, the source holds several entries; their conditions need not be identical. Equal entries are not always repeated.

B1: mNeonGreen-pPho4_(3-200), wild type, phosphorylated (domain or fragment)
chain: RTTSEGIHGFVDDLEPKSSILDKVGDFITVNTKRHDGREDFNEQNDELNSQENHNSSENGNENENEQDSLALDDLDRAFELVEGMDMDWMMPSHAHHSPATTATIKPRLLYSPLIHTQSAVPVTISPNLVATATSTTSANKVTKNKSNSSPYLNKRRGKPGPDSATSLFELPDSVIPTPKPKPKPKQYPKVILPSNST
modifications: phosphorylated in vitro by Pho80-Pho85: pS100, pS114, pS128, pS152
For the molecule B1, the dissociation constant (Kd) – broadly, a measure of binding affinity in units of concentration – in test [1] is 20 nM and 44 nM and 25 nM; with Msn5 RRAA (R393A, R458A) it was 2200 nM.

B2: pPho4_(1-200), phosphorylated, GST removed (domain or fragment)
chain: MGRTTSEGIHGFVDDLEPKSSILDKVGDFITVNTKRHDGREDFNEQNDELNSQENHNSSENGNENENEQDSLALDDLDRAFELVEGMDMDWMMPSHAHHSPATTATIKPRLLYSPLIHTQSAVPVTISPNLVATATSTTSANKVTKNKSNSSPYLNKRRGKPGPDSATSLFELPDSVIPTPKPKPKPKQYPKVILPSNST
modifications: phosphorylated in vitro by Pho80-Pho85: pS100, pS114, pS128, pS152 (pS114 and pS128 seen in the structure)
For the molecule B2, the binding result in test [2] is given as “binds”.

For the origin of these results see publication PMC11910620 (Nature Communications, 2025).
